This data set concerns the molecule itself. Nature of the data set: crystal structure; X-ray, 1.63 Å, space group C222(1); crystals from Morpheus condition H02 (10% w/v PEG 8000, 20% v/v ethylene glycol, amino acid mix, 0.1 M MES/imidazole pH 6.5), 18°C; two chains in the asymmetric unit.

B1: (R)-selective ω-transaminase from Aspergillus terreus (enzyme, UniProt Q0C8G1 1-325, looked up)
chain: MASMDKVFAGYAARQAILESTETTNPFAKGIAWVEGELVPLAEARIPLLDQGFMHSDLTYDVPSVWDGRFFRLDDHITRLEASCTKLRLRLPLPRDQVKQILVEMVAKSGIRDAFVELIVTRGLKGVRGTRPEDIVNNLYMFVQPYVWVMEPDMQRVGGSAVVARTVRRVPPGAIDPTVKNLQWGDLVRGMFEAADRGATYPFLTDGDAHLTEGSGFNIVLVKDGVLYTPDRGVLQGVTRKSVINAAEAFGIEVRVEFVPVELAYRCDEIFMCTTAGGIMPITTLDGMPVNGGQIGPITKKIWDGYWAMHYDAAYSFEIDYNERN
modifications: pyridoxal 5'-phosphate (PLP) covalently bound to Lys180 (internal aldimine), present in part; the other state is free Lys180 with a PLP-amino acid adduct (ligand code PGD)
notes: ω-(R)-transaminase from Aspergillus terreus, gene codon-optimized for E. coli; Cloned through NcoI and XhoI into pET28a(+); also called AT-ωTA; (R)-ω-transaminase; source: E. coli BL21-Gold(DE3), pET28a(+), purified (Ni Sepharose, SEC on Superdex 200); not shown: His-Tag, C-terminal, kept
As for B1, the “stoichiometry N” value is 2.

Values taken from publication PMC3907554, “Crystal Structure of an (R)-Selective ω-Transaminase from Aspergillus terreus” (PLoS ONE, 2014).
